From publication PMC8067709, “Crystal Structure of the Epo1-Bem3 Complex for Bud Growth” (International Journal of Molecular Sciences, 2021) come the findings set out here.

First the molecules themselves.
B1: Bem3^CC1 (1-99) with 6xHis tag, isolated protein [Saccharomyces cerevisiae] / itself (parent)
chain: MTDNLTTTHGGSTTLELLAQYNDHRSKKDKSIEHIEKGTCSGKERNPSYDEIFTENIKLKLQVQEYETEIESLEKVIDMLQKNREASLEVVLEQVQNDS

The variants in the test derive from B1. The test is described as follows: SEC-MALS (MALS coupled with gel filtration). The note with it: read off a plot. A general note: Size exclusion chromatography separates by hydrodynamic size, large species first.
As to MTDNLTTTHGGSTTLELLAQYNDHRSKKDKSIEHIEKGTCSGKERNPSYDEIFTEAIKLKLQVQEYATEIESLEKVIDMLQKNREASLEVVLEQVQNDS [chain 1 N56A E67A], the molar mass was determined as 18 kDa.

Regarding MTDNLTTTHGGSTTLELLAQYNDHRSKKDKSIEHIEKGTCSGKERNPSYDEIFTENIKLKLQVQEYATEIESLEKVIDMLQKNREASLEVVLEQVQNDS [chain 1 E67A], the molar mass came out at 20 kDa.

On to MTDNLTTTHGGSTTLELLAQYNDHRSKKDKSIEHIEKGTCSGKERNPSYDEIFTEAIKLKLQVQEAETEIESLEKVIDMLQKNREASLEVVLEQVQNDS [chain 1 N56A Y66A], for which the molar mass stood at 10 kDa.

For MTDNLTTTHGGSTTLELLAQYNDHRSKKDKSIEHIEKGTCSGKERNPSYDEIFTEAIKLKLQVQEAATEIESLEKVIDMLQKNREASLEVVLEQVQNDS [chain 1 N56A Y66A E67A], the molar mass worked out at 9.5 kDa.

For the variant MTDNLTTTHGGSTTLELLAQYNDHRSKKDKSIEHIEKGTCSGKERNPSYDEIFTENIKLKLQVQEAETEIESLEKVIDMLQKNREASLEVVLEQVQNDS [chain 1 Y66A], the molar mass came out at 19 kDa.

For MTDNLTTTHGGSTTLELLAQYNDHRSKKDKSIEHIEKGTCSGKERNPSYDEIFTEAIKLKLQVQEYETEIESLEKVIDMLQKNREASLEVVLEQVQNDS [chain 1 N56A], the molar mass was determined as 17 kDa.
